Source: publication doi:10.1101/2023.09.12.557426 (bioRxiv, 2023)
Each block holds one binder with its values, some of them ahead of it.

Tests used:
[1] = target: His14-NEDD8 tagged APD of xtNup98(715-866) (Xenopus tropicalis, UniProt A0A1B8XZT4); assay: pull-down
[2] = target: T1, human Nup98 of HeLa cells (human (endogenous in HeLa), UniProt P52948); assay: pull-down
[3] = target: T2, Xenopus Nup98 from egg extract (Xenopus laevis, endogenous in egg …, UniProt A0A8J1MFV7); assay: pull-down
crystal structure = target: the molecule itself; assay: crystal structure
xlNup93(168-820) = xlNup93(168-820) (Xenopus laevis, UniProt Q7ZX96); assay: cryo-EM structure
[4] = target: Xenopus Nup93, target protein of the BLI measurement (Xenopus, UniProt Q7ZX96); assay: BLI
[5] = target: Xenopus Nup93 from egg extract (Xenopus laevis (endogenous in egg …, UniProt Q7ZX96)); assay: pull-down
[6] = target: human Nup93 from HeLa lysate (human (endogenous in HeLa), UniProt Q8N1F7); assay: pull-down
[7] = target: T1, human Nup98 of HeLa cells; assay: immunostaining of cells or tissue
[8] = target: T2, Xenopus Nup98 from egg extract; assay: immunostaining of cells or tissue
[9] = target: hNup35(173-248, the RRM domain) (human, UniProt Q8NFH5); assay: crystal structure
[10] = target: human Nup35 in NPCs of HeLa cells (Homo sapiens (HeLa), UniProt Q8NFH5); assay: immunostaining of cells or tissue
[11] = target: Xenopus Nup35 from egg extract, in newly assembled NPCs (Xenopus laevis, UniProt I1VEB0); assay: immunostaining of cells or tissue

xlNup93(168-820), sequence (Q7ZX96 168-820): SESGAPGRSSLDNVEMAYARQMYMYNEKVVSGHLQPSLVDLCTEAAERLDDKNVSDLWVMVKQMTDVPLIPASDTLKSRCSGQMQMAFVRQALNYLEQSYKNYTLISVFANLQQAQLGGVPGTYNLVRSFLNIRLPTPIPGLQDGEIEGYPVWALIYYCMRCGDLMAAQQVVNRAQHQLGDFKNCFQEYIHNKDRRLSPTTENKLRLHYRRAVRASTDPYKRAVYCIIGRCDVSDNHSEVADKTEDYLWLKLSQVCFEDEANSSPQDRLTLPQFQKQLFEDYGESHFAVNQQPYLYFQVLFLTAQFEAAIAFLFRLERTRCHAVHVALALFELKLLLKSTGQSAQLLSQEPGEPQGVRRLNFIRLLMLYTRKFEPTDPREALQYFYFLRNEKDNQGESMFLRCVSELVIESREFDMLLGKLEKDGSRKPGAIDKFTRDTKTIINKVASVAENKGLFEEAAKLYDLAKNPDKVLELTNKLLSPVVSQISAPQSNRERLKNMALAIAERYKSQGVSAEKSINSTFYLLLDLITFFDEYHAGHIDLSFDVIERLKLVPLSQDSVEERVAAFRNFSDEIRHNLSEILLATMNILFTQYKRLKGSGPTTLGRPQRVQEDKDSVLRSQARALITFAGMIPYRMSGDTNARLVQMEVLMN
T1 sequence (P52948 1-880): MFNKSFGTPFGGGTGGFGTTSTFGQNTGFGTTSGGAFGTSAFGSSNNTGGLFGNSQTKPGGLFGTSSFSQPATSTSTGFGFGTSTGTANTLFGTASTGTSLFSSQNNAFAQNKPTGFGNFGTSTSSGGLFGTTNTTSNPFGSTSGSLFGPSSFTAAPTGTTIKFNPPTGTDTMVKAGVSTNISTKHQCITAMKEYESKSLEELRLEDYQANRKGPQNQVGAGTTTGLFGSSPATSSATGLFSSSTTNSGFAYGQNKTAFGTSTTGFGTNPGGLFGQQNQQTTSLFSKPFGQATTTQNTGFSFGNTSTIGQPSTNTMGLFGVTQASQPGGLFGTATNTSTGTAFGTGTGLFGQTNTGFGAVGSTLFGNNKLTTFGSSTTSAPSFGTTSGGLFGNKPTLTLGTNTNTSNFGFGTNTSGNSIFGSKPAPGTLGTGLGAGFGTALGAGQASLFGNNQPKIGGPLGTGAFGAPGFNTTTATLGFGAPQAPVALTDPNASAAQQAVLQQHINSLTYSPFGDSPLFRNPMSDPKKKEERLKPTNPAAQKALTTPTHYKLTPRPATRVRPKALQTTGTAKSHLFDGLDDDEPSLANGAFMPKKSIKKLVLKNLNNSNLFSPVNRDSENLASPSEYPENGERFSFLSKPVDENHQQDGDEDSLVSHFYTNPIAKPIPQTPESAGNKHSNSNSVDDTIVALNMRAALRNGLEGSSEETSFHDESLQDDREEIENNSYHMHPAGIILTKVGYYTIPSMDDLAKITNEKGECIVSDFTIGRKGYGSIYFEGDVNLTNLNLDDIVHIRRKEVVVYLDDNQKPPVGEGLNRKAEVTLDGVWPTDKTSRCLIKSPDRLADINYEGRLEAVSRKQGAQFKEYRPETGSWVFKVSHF
human Nup35 in NPCs of HeLa cells, sequence (Q8NFH5 whole entry): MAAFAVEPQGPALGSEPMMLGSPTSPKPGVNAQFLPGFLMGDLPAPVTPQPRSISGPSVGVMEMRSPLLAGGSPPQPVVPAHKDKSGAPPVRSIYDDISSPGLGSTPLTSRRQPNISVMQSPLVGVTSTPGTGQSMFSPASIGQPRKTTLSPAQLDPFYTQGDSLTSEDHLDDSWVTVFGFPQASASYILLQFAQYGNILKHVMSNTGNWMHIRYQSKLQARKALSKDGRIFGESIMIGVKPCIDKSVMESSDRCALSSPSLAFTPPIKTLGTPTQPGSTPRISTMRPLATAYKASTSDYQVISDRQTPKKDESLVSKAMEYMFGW
human Nup93 from HeLa lysate, sequence (Q8N1F7 whole entry): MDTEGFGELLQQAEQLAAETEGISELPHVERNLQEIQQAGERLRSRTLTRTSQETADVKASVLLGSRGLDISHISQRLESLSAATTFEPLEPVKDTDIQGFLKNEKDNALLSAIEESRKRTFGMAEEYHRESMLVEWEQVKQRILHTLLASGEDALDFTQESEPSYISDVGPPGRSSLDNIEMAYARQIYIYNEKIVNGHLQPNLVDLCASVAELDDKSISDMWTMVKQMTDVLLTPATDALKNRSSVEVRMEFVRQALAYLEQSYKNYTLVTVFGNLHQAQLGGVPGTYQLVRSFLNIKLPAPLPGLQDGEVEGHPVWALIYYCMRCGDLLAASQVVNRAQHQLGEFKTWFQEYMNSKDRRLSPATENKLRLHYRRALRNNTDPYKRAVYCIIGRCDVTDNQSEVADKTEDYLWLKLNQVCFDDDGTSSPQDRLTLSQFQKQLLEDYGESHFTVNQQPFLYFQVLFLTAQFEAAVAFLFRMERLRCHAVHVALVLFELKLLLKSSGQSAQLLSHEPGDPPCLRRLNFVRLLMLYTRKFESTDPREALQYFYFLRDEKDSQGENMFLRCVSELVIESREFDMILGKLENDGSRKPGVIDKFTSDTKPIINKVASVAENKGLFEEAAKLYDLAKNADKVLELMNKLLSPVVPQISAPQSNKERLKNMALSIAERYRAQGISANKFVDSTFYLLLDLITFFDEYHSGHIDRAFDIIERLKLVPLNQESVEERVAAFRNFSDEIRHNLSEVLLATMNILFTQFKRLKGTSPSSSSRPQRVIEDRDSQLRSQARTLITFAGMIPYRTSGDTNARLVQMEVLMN
Xenopus Nup93, target protein of the BLI measurement, sequence (Q7ZX96 whole entry): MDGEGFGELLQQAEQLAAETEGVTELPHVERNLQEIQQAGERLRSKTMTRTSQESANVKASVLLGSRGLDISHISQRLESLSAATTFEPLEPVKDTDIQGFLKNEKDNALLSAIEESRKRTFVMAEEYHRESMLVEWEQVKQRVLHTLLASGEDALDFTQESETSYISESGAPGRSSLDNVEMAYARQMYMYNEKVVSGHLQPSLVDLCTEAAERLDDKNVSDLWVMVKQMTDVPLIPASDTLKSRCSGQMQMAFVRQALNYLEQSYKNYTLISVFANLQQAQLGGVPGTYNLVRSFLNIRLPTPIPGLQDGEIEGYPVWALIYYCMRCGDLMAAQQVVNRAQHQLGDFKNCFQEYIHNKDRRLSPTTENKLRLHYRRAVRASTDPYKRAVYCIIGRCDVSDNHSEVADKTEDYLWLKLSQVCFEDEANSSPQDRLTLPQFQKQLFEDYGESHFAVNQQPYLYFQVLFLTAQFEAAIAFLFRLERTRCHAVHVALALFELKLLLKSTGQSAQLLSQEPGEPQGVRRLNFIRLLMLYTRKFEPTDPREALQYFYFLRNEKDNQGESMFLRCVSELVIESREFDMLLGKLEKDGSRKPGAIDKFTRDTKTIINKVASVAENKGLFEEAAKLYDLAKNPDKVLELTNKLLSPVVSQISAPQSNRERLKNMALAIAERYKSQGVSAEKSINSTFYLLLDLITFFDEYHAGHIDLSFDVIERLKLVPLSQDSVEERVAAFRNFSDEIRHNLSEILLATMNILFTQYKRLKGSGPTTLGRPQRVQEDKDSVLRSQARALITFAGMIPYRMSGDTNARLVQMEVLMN
Xenopus Nup93 from egg extract (Xenopus laevis, sequence (Q7ZX96 whole entry): as above

- binding result [1]: binds
B1: xhNup98-Nb2i (VHH)
VHH: QVQLVESGGGLAKPGGSLRLSCVATGTFRSMEDVGWYRQAPGKDRELVAEITTLGKVTYADSVKGRFTISRDDAKNAVYLQMSDLKSEDTAVYYCNIEADQTKGIGYVVYPYWGQGTRVTVSS

- binding result [2]: binds
- binding result [3]: binds
B2: (biotin)-Avi-SUMO^Eu1-xhNup98-Nb2i (VHH)
VHH: B1 VHH

B3: hNup35(173-248, the RRM domain) (domain or fragment)
chain: DSWVTVFGFPQASASYILLQFAQYGNILKHVMSNTGNWMHIRYQSKLQARKALSKDGRIFGESIMIGVKPCIDKSV
- binding result (crystal structure): binds

- binding result (xlNup93(168-820)): binds
B4: xNup93-Nb2t (VHH)
VHH: DVQLVESGGGLVQPGGSLRLSCVASGFTFSRVGMGWVRQAPGKGLEWVSDINASGGTGYADSVKGRFAISRDNAKNTLYLQMNRLKPEDTAVYYCAKMMDTAMIEAGIIKPAGQGTQVTVSS

- binding result [4]: binds
B5: xhNup93-Nb4i, biotinylated at two ectopic cysteines (VHH)
VHH: QVQLVESGGGVVQTGDSLMLSCTVSGHTIDNWAMGWFRQTPRKQREFVAAIDKRGTGAIYGNSVKGRFTVSRDNAKNMVYLRMNSLKPEDTAVYFCAVDQLNAGLGDVSYDYDYWGQGTQVTVSS

- binding result (xlNup93(168-820)): binds
B6: xhNup93-Nb4i (VHH)
VHH: B5 VHH

- binding result [5]: binds
- binding result [6]: binds
B7: (biotin)-Avi-SUMO^Eu1-xhNup93-Nb4i (VHH)
VHH: B5 VHH

- binding result [1]: binds
B8: xNup98-Nb1t (VHH)
VHH: QVQLVESGGGPVEAGGSLRLSCAASGRSFSNSVMAWFRQAPGKEREFLSVLNWSSGRTSIADSVKGRFTMSRDPAKITVYLQMNGLKPEDTAVYYCAASNRGSLYTLDNQNRYEDWGQGTQVTVSS

- binding result [7]: no binding (tested: 35 nM)
- binding result [8]: binds
B9: xNup98-Nb1t, fluorophore-labelled (VHH)
VHH: B8 VHH

- binding result [9]: binds
B10: xhNup35-Nb1t (VHH)
VHH: QVQLVESGGGLVQAGGSLRLSCVGTGNISSAYTMAWYRQAAGKEREVVAGILNGGSTHYADSVKGRFTISRDNAKNTVYLQMNSLQPEDTGVYCCHVVIESTRFVYDHYWGQGTRVTVSS

- binding result [10]: binds
- binding result [11]: binds
B11: xhNup35-Nb1t, fluorophore-labelled (VHH)
VHH: B10 VHH
